Measurements taken from US20110262366A1.
No end group written: not given here.

How the values were obtained:
[1] = target: endothelial cell receptor on HAEC (human aortic endothelial cells); assay: competition, 10 µM free TKPPR against 1% BRU-114 microbubbles (competitor) on HAEC, static
[2] = target: endothelial cell receptor on HAEC (human aortic endothelial cells); assay: competition, 25 µM free TKPPR against 1% BRU-292 microbubbles (competitor) on HAEC, static
[3] = target: endothelial cell receptor on HAEC (human aortic endothelial cells); assay: competition, 10 µM free TKPPR against 1% BRU-114 microbubbles (competitor) on HAEC, static; remark: listed apart in the source
[4] = target: endothelial cell receptor on HAEC (human aortic endothelial cells); assay: competition, 200 µM free TKPPR against 5% BRU-114 microbubbles (competitor) on HAEC, static
[5] = target: endothelial cell receptor on HAEC (human aortic endothelial cells); assay: competition, 10 µM free TKPPR against 5% BRU-114 microbubbles (competitor) on HAEC, static
[6] = target: endothelial cell receptor on HAEC (human aortic endothelial cells); assay: competition, 50 µM free TKPPR against 1% BRU-114 microbubbles (competitor) on HAEC, static
[7] = target: endothelial cell receptor on HAEC (human aortic endothelial cells); assay: competition, 200 µM free TKPPR against 1% BRU-114 microbubbles (competitor) on HAEC, static
[8] = target: endothelial cell receptor on HAEC (human aortic endothelial cells); assay: competition, 10 µM free TKPPR against 1% BRU-114 microbubbles (competitor) on HAEC, static; remark: listed apart in the source
[9] = target: endothelial cell receptor on HAEC (human aortic endothelial cells); assay: competition, 200 µM free TKPPR against TKPPR-beads (competitor) on HAEC, static, n = 11
[10] = target: endothelial cell receptor on HAEC (human aortic endothelial cells); assay: competition, 25 µM free TKPPR against 1% DPPE-GTKPPR microbubbles (competitor) on HAEC, static
[11] = target: endothelial cell receptor on HAEC (human aortic endothelial cells); assay: competition, 100 µM free TKPPR against 5% BRU-114 microbubbles (competitor) on HAEC, static
[12] = target: endothelial cell receptor on HAEC (human aortic endothelial cells); assay: competition, free TKPPR 100 µM (head prints 100 µmol) against 5% DPPE-GTKPPR microbubbles (competitor) on HAEC, static
[13] = target: endothelial cell receptor on HAEC (human aortic endothelial cells); assay: competition, 50 µM free TKPPR against 5% BRU-114 microbubbles (competitor) on HAEC, static

Bubbles Bound in presence of competitor [1]: 528 bubbles
Bubbles Bound in presence of competitor [2]: 718 bubbles
Bubbles Bound in presence of competitor [3]: 10 bubbles
Bubbles Bound in presence of competitor [4]: 13 bubbles
Bubbles Bound in presence of competitor [5]: 1340 bubbles
Bubbles Bound in presence of competitor [6]: 5 bubbles
Bubbles Bound in presence of competitor [7]: 4 bubbles
Bubbles Bound in presence of competitor [8]: 535 bubbles
% Inhibition [9]: 72.2%
Average % Inhibition [10]: 82%
Bubbles Bound in presence of competitor [11]: 12 bubbles
Bubbles Bound in presence of competitor [12]: 62 bubbles
Bubbles Bound in presence of competitor [13]: 440 bubbles
Binder: TKPPR-OH [TKPPR-OH (L-threonyl-L-lysyl-L-prolyl-L-prolyl-L-arginine)]
